B1: YPEL3 (parent)
chain: SKPKTFQAYLDDCHRRYSCAHCRA

Variants of: B1
Assay: protein stability index of a GFP-peptide fusion (GPS, HEK-293T) (PSI 1-6); higher = more stable
Conditions: c terminus: a fixed tail appended
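Also: lentivirally expressed fusions sorted by FACS into six bins by GFP to DsRed ratio, PSI derived from sequencing read proportions per bin multiplied by bin number.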

First: SKPKTFQAYLDDCHRRASCAHCRA [Y17A]
Second: SKPKTFQAYLDDCHRRSSCAHCRA [Y17S]
The protein stability index of the first is higher: 1.99 for the first, 1.89 for the second.

Compared with SKPKTFQAYLDDCHRRFSCAHCRA [Y17F], SKPKTFQAYLDDCHRRVSCAHCRA [Y17V] is lower in protein stability index: 3.01 for the first, 1.39 for the second.

Going from SKPKTFQAYLDDCHRRMSCAHCRA [Y17M] to SKPKTFQAYLDDCHRRLSCAHCRA [Y17L], the protein stability index rises from 1.64 to 2.

Compared with SKPKTFQAYLDDCHRRDSCAHCRA [Y17D], SKPKTFQAYLDDCHRRCSCAHCRA [Y17C] is higher in protein stability index: 2.44 for the first, 3.26 for the second.

Going from SKPKTFQAYLDDCHRRTSCAHCRA [Y17T] to SKPKTFQAYLDDCHRRNSCAHCRA [Y17N], the protein stability index falls from 2.37 to 1.8.

Compared with SKPKTFQAYLDDCHRRKSCAHCRA [Y17K], SKPKTFQAYLDDCHRRESCAHCRA [Y17E] is lower in protein stability index: 3.43 for the first, 2.66 for the second.

First: SKPKTFQAYLDDCHRRISCAHCRA [Y17I]
Second: SKPKTFQAYLDDCHRRPSCAHCRA [Y17P]
The protein stability index of the first is higher: 2.13 for the first, 1.93 for the second.

Going from SKPKTFQAYLDDCHRRGSCAHCRA [Y17G] to SKPKTFQAYLDDCHRRHSCAHCRA [Y17H], the protein stability index rises from 2.02 to 2.07.

Compared with SKPKTFQAYLDDCHRRRSCAHCRA [Y17R], SKPKTFQAYLDDCHRRYSVAHCRA [C19V] is lower in protein stability index: 2.79 for the first, 2.41 for the second.

First: SKPKTFQAYLDDCHRRYSWAHCRA [C19W]
Second: SKPKTFQAYLDDCHRRYSTAHCRA [C19T]
The protein stability index of the first is lower: 1.66 for the first, 2.44 for the second.

Going from SKPKTFQAYLDDCHRRYSGAHCRA [C19G] to SKPKTFQAYLDDCHRRYSNAHCRA [C19N], the protein stability index rises from 2.68 to 3.42.

Going from SKPKTFQAYLDDCHRRYSFAHCRA [C19F] to SKPKTFQAYLDDCHRRYSYAHCRA [C19Y], the protein stability index rises from 1.53 to 2.44.

First: SKPKTFQAYLDDCHRRYSEAHCRA [C19E]
Second: SKPKTFQAYLDDCHRRYSSAHCRA [C19S]
The protein stability index of the first is higher: 3.18 for the first, 2.87 for the second.

Compared with SKPKTFQAYLDDCHRRYSPAHCRA [C19P], SKPKTFQAYLDDCHRRYSIAHCRA [C19I] is lower in protein stability index: 2.85 for the first, 2.33 for the second.

First: SKPKTFQAYLDDCHRRYSRAHCRA [C19R]
Second: SKPKTFQAYLDDCHRRYSAAHCRA [C19A]
The protein stability index of the first is lower: 2.04 for the first, 2.51 for the second.

Compared with SKPKTFQAYLDDCHRRYSLAHCRA [C19L], SKPKTFQAYLDDCHRRYSMAHCRA [C19M] is lower in protein stability index: 2.08 for the first, 1.63 for the second.

Compared with SKPKTFQAYLDDCHRRYSHAHCRA [C19H], SKPKTFQAYLDDCHRRYSQAHCRA [C19Q] is lower in protein stability index: 2.96 for the first, 2.53 for the second.

First: SKPKTFQAYLDDCHRRYSKAHCRA [C19K]
Second: SKPKTFQAYLDDCHRRYSDAHCRA [C19D]
The protein stability index of the first is lower: 2.64 for the first, 3.27 for the second.

Going from SKPKTFQAYLDDCHRRYNCAHCRA [S18N] to SKPKTFQAYLDDCHRRYMCAHCRA [S18M], the protein stability index rises from 2.06 to 2.73.

Compared with SKPKTFQAYLDDCHRRYTCAHCRA [S18T], SKPKTFQAYLDDCHRRYGCAHCRA [S18G] is higher in protein stability index: 2.37 for the first, 2.5 for the second.

Compared with SKPKTFQAYLDDCHRRYWCAHCRA [S18W], SKPKTFQAYLDDCHRRYKCAHCRA [S18K] is higher in protein stability index: 1.52 for the first, 2.01 for the second.

First: SKPKTFQAYLDDCHRRYLCAHCRA [S18L]
Second: SKPKTFQAYLDDCHRRYICAHCRA [S18I]
The protein stability index of the first is lower: 2.14 for the first, 2.37 for the second.

Compared with SKPKTFQAYLDDCHRRYYCAHCRA [S18Y], SKPKTFQAYLDDCHRRYQCAHCRA [S18Q] is higher in protein stability index: 1.48 for the first, 1.86 for the second.

First: SKPKTFQAYLDDCHRRYECAHCRA [S18E]
Second: SKPKTFQAYLDDCHRRYRCAHCRA [S18R]
The protein stability index of the first is lower: 1.52 for the first, 2.56 for the second.

First: SKPKTFQAYLDDCHRRYDCAHCRA [S18D]
Second: SKPKTFQAYLDDCHRRYFCAHCRA [S18F]
The protein stability index of the first is lower: 1.5 for the first, 1.91 for the second.

First: SKPKTFQAYLDDCHRRYPCAHCRA [S18P]
Second: SKPKTFQAYLDDCHRRYSCAACRA [H21A]
The protein stability index of the first is higher: 2.15 for the first, 2.06 for the second.

First: SKPKTFQAYLDDCHRRYSCACCRA [H21C]
Second: SKPKTFQAYLDDCHRRYSCAFCRA [H21F]
The protein stability index of the first is higher: 1.83 for the first, 1.52 for the second.

First: SKPKTFQAYLDDCHRRYSCALCRA [H21L]
Second: SKPKTFQAYLDDCHRRYSCADCRA [H21D]
The protein stability index of the first is lower: 1.74 for the first, 2.18 for the second.

First: SKPKTFQAYLDDCHRRYSCAGCRA [H21G]
Second: SKPKTFQAYLDDCHRRYSCAKCRA [H21K]
The protein stability index of the first is lower: 1.28 for the first, 2.37 for the second.

First: SKPKTFQAYLDDCHRRYSCAICRA [H21I]
Second: SKPKTFQAYLDDCHRYYSCAHCRA [R16Y]
The protein stability index of the first is higher: 2.52 for the first, 1.83 for the second.

Going from SKPKTFQAYLDDCHRVYSCAHCRA [R16V] to SKPKTFQAYLDDCHRTYSCAHCRA [R16T], the protein stability index rises from 2.34 to 2.46.

First: SKPKTFQAYLDDCHRCYSCAHCRA [R16C]
Second: SKPKTFQAYLDDCHRAYSCAHCRA [R16A]
The protein stability index of the first is higher: 2.4 for the first, 1.76 for the second.

Going from SKPKTFQAYLDDCHRQYSCAHCRA [R16Q] to SKPKTFQAYLDDCHRFYSCAHCRA [R16F], the protein stability index falls from 2.5 to 1.76.

First: SKPKTFQAYLDDCHREYSCAHCRA [R16E]
Second: SKPKTFQAYLDDCHRKYSCAHCRA [R16K]
The protein stability index of the first is higher: 3.04 for the first, 1.73 for the second.

Going from SKPKTFQAYLDDCHRHYSCAHCRA [R16H] to SKPKTFQAYLDDCHRLYSCAHCRA [R16L], the protein stability index rises from 2.3 to 2.33.

First: SKPKTFQAYLDDCHRNYSCAHCRA [R16N]
Second: SKPKTFQAYLDDCHRSYSCAHCRA [R16S]
The protein stability index of the first is lower: 1.45 for the first, 1.59 for the second.

Going from SKPKTFQAYLDDCHRIYSCAHCRA [R16I] to SKPKTFQAYLDDCHRDYSCAHCRA [R16D], the protein stability index rises from 1.55 to 2.45.

First: SKPKTFQAYLDDCHRGYSCAHCRA [R16G]
Second: SKPKTFQAYLDDCHRMYSCAHCRA [R16M]
The protein stability index of the first is lower: 1.33 for the first, 1.88 for the second.

Going from SKPKTFQAYLDDCHRPYSCAHCRA [R16P] to SKPKTFQAYLDDCHRRYSCNHCRA [A20N], the protein stability index rises from 1.94 to 2.92.

Compared with SKPKTFQAYLDDCHRRYSCFHCRA [A20F], SKPKTFQAYLDDCHRRYSCSHCRA [A20S] is lower in protein stability index: 2.22 for the first, 1.46 for the second.

Compared with SKPKTFQAYLDDCHRRYSCTHCRA [A20T], SKPKTFQAYLDDCHRRYSCIHCRA [A20I] is lower in protein stability index: 2.29 for the first, 1.89 for the second.

Compared with SKPKTFQAYLDDCHRRYSCHHCRA [A20H], SKPKTFQAYLDDCHRRYSCKHCRA [A20K] is higher in protein stability index: 2.04 for the first, 2.95 for the second.

Compared with SKPKTFQAYLDDCHRRYSCYHCRA [A20Y], SKPKTFQAYLDDCHRRYSCDHCRA [A20D] is lower in protein stability index: 2.16 for the first, 1.1 for the second.

Going from SKPKTFQAYLDDCHRRYSCVHCRA [A20V] to SKPKTFQAYLDDCHRRYSCRHCRA [A20R], the protein stability index falls from 2.02 to 1.72.

Compared with SKPKTFQAYLDDCHRRYSCPHCRA [A20P], SKPKTFQAYLDDCHRRYSCCHCRA [A20C] is lower in protein stability index: 1.92 for the first, 1.31 for the second.

First: SKPKTFQAYLDDCHRRYSCEHCRA [A20E]
Second: SKPKTFQAYLDDCHRRYSCQHCRA [A20Q]
The protein stability index of the first is lower: 1.46 for the first, 1.71 for the second.

First: SKPKTFQAYLDDCHRRYSCLHCRA [A20L]
Second: SKPKTFQAYLDDCHRRYSCWHCRA [A20W]
The protein stability index of the first is lower: 1.64 for the first, 3.14 for the second.

Source: the supplement of paper PMC10567573
